Test [1] concerns the target murine IL-11 (mouse) (UniProt P47873). Briefly: cell-based or functional assay.
For test [2], the target named is human IL-11 (human) (UniProt P20809). Briefly: cell-based or functional assay.
Chain of UniProt P20809 (P20809 22-199 limits assumed): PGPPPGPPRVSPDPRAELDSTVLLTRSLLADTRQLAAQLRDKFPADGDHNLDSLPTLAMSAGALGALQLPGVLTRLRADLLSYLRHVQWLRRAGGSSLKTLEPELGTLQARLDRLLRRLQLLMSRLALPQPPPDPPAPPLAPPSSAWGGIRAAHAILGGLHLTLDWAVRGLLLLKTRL

Chain of UniProt P47873 (P47873 22-199 limits assumed): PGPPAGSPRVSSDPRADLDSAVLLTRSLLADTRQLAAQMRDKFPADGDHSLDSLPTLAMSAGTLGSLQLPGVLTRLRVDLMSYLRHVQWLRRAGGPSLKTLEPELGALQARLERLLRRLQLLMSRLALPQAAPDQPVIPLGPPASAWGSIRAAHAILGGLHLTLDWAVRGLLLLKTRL

On to “neutralising anti-human IL-11 monoclonal antibody (Monoclonal Mouse IgG2A; Clone #22626; Catalog No. MAB218; R&D Systems, MN, USA)”, for which, in test [1], the percentage of activated fibroblasts normalised to non-stimulated cultures (fold of non-stimulated cultures) was determined as 1.24; the percentage of activated mouse atrial fibroblasts with TGFβ1, against unstimulated cultures (fold of unstimulated cultures) was 1.44; the percentage of activated mouse dermal fibroblasts with TGFβ1 (% activated fibroblasts) was found to be 39.4. In test [2], the percentage of activated (αSMA-positive) human atrial fibroblasts with TGFβ1 (% activated fibroblasts) stood at 28.3; the percentage of activated fibroblasts normalised to non-stimulated cultures (fold of non-stimulated cultures) was 0.99; the percentage of activated human atrial fibroblasts with TGFβ1, against unstimulated cultures (fold of unstimulated cultures) was 0.89.

(Values after patent EP4810608A2.)
